Reference: US20230348603A1 (VERSEAU THERAPEUTICS, published 2023)

B1: 13H11 mouse/human chimeric IgG4 (S228P) kappa (antibody, V domains shown)
VH: QIQLVQSGPELKKPGETVKISCKASGYTFENFGMNWVKQAPGKGLKWMGWINTYTGEATYADDFKGRFAFSLETSASTAYLQINNLKNEDTATYFCARDGGFRHFDVWGAGTTVTVSS
VL: ETTVTQSPASLSVATGEKVTIRCITSTDIDDDMNWYQQKPGEPPKLLISEGNTLRPGVPSRFSSSGYGTDFVFTIENMLSEDVADYYCLQSDNLPLTFGAGTKLELKR
B2: 14C05 mouse/human chimeric IgG4 (S228P) kappa (antibody, V domains shown)
VH: EVMLVESGPELKKPGETVKISCKASGYTFTNYGMNWVKQAPGKGLKWMGSINTYTGEATYADDFKGRFAFSLETSANTAYLQIDNLKNEDTATYFCARGDYYGRGTWFAYWGQGTLVTVSA
VL: ETTVTQSHKFMSTSVGDRVSITCKASQDVSTAVAWYQQKPGQSPKLLIYSASYRYPGVPDRFTGSGSGTDFTFTISSVQAEDLAVYYCQQDYSSPWTFGGGTKLEIKR

How the values were obtained:
[1] = target: T1, Human VSIG4-L-CHO (human VSIG4 long isoform on CHO-K1 cells) (human, UniProt Q9Y279 20-399); assay: flow cytometry (FJB), 200 nM mAb, huVSIG4-L CHO-K1 over parental CHO-K1
T1 construct: also called hVSIG4-L (flow cytometry)
T1 sequence: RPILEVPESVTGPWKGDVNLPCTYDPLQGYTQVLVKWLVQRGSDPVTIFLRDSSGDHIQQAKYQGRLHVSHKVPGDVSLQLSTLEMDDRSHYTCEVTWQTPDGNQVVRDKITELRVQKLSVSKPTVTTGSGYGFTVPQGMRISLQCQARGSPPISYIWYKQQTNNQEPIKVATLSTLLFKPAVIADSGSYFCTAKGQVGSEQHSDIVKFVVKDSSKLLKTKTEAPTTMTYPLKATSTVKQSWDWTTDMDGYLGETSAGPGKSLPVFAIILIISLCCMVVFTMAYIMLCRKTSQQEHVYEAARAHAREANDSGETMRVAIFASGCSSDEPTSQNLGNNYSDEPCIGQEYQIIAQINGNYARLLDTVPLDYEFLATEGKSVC

[2] = target: T1, Human VSIG4-L-CHO (human VSIG4 long …); assay: flow cytometry, CHO-K1 cells expressing hVSIG4-L
Human VSIG4-L-Fc [3] = target: T2, Human VSIG4-L-Fc (human); assay: BLI binning on hVSIG4-L-Fc, competitor 15C03 first;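 further: normalized to binding of second antibody without first competitor antibody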
T2 construct: also called hVSIG4-L-Fc; hVSIG4-L

Human VSIG4-L-Fc [4] = target: T2, Human VSIG4-L-Fc; assay: BLI binning on hVSIG4-L-Fc, competitor 14D12 first;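 further: normalized to binding of second antibody without first competitor antibody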
Human VSIG4-L-Fc [5] = target: T2, Human VSIG4-L-Fc; assay: BLI binning on hVSIG4-L-Fc, competitor 13H11 first;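 further: normalized to binding of second antibody without first competitor antibody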
Human VSIG4-L-Fc [6] = target: T2, Human VSIG4-L-Fc; assay: BLI binning on hVSIG4-L-Fc, competitor 15C04 first;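 further: normalized to binding of second antibody without first competitor antibody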
Human VSIG4-S-His [7] = target: T3, Human VSIG4-S-His (human, UniProt Q9Y279 20-283); assay: BLI (Octet), IgG on AHC sensor
T3 construct: short isoform ECD with His tag; also called hVSIG4-S; VISG4-S-His
T3 sequence: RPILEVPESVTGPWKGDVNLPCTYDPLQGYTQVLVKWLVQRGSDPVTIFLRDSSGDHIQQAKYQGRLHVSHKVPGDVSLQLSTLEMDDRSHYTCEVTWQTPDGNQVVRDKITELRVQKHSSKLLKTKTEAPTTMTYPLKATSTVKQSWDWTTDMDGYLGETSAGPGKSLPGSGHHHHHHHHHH

Human VSIG4-L-Fc [8] = target: T2, Human VSIG4-L-Fc; assay: BLI binning on hVSIG4-L-Fc, competitor 16E03 first;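 further: normalized to binding of second antibody without first competitor antibody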
Human VSIG4-L-His [9] = target: T4, Human VSIG4-L-His (human, UniProt Q9Y279 20-283); assay: BLI, IgG on AHC sensor, antigen 100 nM
T4 construct: long isoform ECD with His tag; also called hVSIG4-L
T4 sequence: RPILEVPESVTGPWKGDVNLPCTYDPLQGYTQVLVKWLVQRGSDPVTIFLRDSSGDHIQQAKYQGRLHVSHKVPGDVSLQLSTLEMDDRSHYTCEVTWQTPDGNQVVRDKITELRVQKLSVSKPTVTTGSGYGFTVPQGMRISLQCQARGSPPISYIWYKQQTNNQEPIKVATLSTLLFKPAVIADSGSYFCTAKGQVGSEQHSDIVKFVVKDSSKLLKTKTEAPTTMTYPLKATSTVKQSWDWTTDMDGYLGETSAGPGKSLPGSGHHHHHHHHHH

[10] = target: T5, Cynomolgus Monkey VSIG4-L-His (cynomolgus monkey); assay: BLI, IgG on AHC sensor, antigen 100 nM
T5 construct: ECD with His tag; also called cyVSIG4-L; cyno VSIG4-L-His
T5 chain: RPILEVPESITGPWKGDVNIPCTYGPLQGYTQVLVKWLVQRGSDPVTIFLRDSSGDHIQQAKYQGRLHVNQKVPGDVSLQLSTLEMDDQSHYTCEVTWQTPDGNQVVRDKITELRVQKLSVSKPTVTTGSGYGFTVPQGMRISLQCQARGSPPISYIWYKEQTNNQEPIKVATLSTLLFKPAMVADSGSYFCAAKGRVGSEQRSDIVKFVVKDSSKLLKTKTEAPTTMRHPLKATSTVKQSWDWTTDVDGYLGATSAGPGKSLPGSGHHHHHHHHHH

Human VSIG4-L-Fc [11] = target: T2, Human VSIG4-L-Fc; assay: BLI binning on hVSIG4-L-Fc, competitor 16E10 first;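 further: normalized to binding of second antibody without first competitor antibody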
Human VSIG4-L-Fc [12] = target: T2, Human VSIG4-L-Fc; assay: BLI binning on hVSIG4-L-Fc, competitor 12A12 first;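 further: normalized to binding of second antibody without first competitor antibody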
Human VSIG4-L-Fc [13] = target: T2, Human VSIG4-L-Fc; assay: BLI binning on hVSIG4-L-Fc, competitor 14C05 first;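 further: normalized to binding of second antibody without first competitor antibody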
Human VSIG4-L-Fc [14] = target: T2, Human VSIG4-L-Fc; assay: ligand blocking of iC3b, IgG
[15] = target: T1, Human VSIG4-L-CHO (human VSIG4 long …); assay: flow cytometry (FJB), 200 nM mAb, huVSIG4-L CHO-K1 cells
Human VSIG4-L-Fc [16] = target: T2, Human VSIG4-L-Fc; assay: BLI binning on hVSIG4-L-Fc, competitor 12A08 first;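 further: normalized to binding of second antibody without first competitor antibody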
Human VSIG4-L-Fc [17] = target: T2, Human VSIG4-L-Fc; assay: ligand blocking of C3b, IgG
[18] = target: T5, Cynomolgus Monkey VSIG4-L-His; assay: SPR (FJB)
Human VSIG4-L-Fc [19] = target: T2, Human VSIG4-L-Fc; assay: ligand competition ELISA (FJB), blocked ligand iC3b
Human VSIG4-L-Fc [20] = target: T2, Human VSIG4-L-Fc; assay: ligand competition ELISA (FJB), blocked ligand C3b
Human VSIG4-L-His [21] = target: T4, Human VSIG4-L-His; assay: BLI (Octet), IgG on AHC sensor, antigen 100 nM
[22] = target: T5, Cynomolgus Monkey VSIG4-L-His; assay: BLI (Octet), IgG on AHC sensor, antigen 100 nM
Human VSIG4-L-Fc [23] = target: T2, Human VSIG4-L-Fc; assay: BLI binning on hVSIG4-L-Fc, competitor 15A06 first;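 further: normalized to binding of second antibody without first competitor antibody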
Human VSIG4-S-Fc = target: T6, Human VSIG4-S-Fc (human); assay: ELISA, IgG 50 nM on coated antigen;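 further: Mouse-human chimeric IgG4 antibodies incubated 1 h on plate-coated VSIG4 proteins, bound IgG detected with HRP-labelled anti-human IgG, irrelevant antibody and protein as specificity controls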
T6 construct: short isoform ECD fused to human Fc1; also called hVSIG4-S

Mouse VSIG4-His = target: T7, Mouse VSIG4-His (mouse); assay: ELISA, IgG 50 nM on coated antigen;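 further: Mouse-human chimeric IgG4 antibodies incubated 1 h on plate-coated VSIG4 proteins, bound IgG detected with HRP-labelled anti-human IgG, irrelevant antibody and protein as specificity controls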
T7 construct: ECD with His tag; also called mVSIG4
T7 chain: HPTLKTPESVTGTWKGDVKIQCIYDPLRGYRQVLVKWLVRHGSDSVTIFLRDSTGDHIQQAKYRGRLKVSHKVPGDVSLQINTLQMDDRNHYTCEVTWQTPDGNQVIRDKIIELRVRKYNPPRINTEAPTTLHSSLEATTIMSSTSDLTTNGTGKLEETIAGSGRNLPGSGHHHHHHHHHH

[24] = target: T5, Cynomolgus Monkey VSIG4-L-His; assay: ELISA, IgG 50 nM on coated antigen;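 further: Mouse-human chimeric IgG4 antibodies incubated 1 h on plate-coated VSIG4 proteins, bound IgG detected with HRP-labelled anti-human IgG, irrelevant antibody and protein as specificity controls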
Human VSIG4-L-Fc [25] = target: T2, Human VSIG4-L-Fc; assay: ELISA, IgG 50 nM on coated antigen;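 further: Mouse-human chimeric IgG4 antibodies incubated 1 h on plate-coated VSIG4 proteins, bound IgG detected with HRP-labelled anti-human IgG, irrelevant antibody and protein as specificity controls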
Human VSIG4-L-Fc [26] = target: T2, Human VSIG4-L-Fc; assay: BLI cross-blocking on hVSIG4-L-Fc, competitor 12A12 first
Human VSIG4-L-His [27] = target: T4, Human VSIG4-L-His; assay: SPR (FJB)
Human VSIG4-L-Fc [28] = target: T2, Human VSIG4-L-Fc; assay: BLI cross-blocking on hVSIG4-L-Fc, competitor 14C05 first
Human VSIG4-L-Fc [29] = target: T2, Human VSIG4-L-Fc; assay: BLI cross-blocking on hVSIG4-L-Fc, competitor 16G02 first
Human VSIG4-S-His [30] = target: T3, Human VSIG4-S-His; assay: BLI (Octet), IgG on AHC sensor, antigen 100 nM

T6 sequence (chain, as listed by the source limits assumed): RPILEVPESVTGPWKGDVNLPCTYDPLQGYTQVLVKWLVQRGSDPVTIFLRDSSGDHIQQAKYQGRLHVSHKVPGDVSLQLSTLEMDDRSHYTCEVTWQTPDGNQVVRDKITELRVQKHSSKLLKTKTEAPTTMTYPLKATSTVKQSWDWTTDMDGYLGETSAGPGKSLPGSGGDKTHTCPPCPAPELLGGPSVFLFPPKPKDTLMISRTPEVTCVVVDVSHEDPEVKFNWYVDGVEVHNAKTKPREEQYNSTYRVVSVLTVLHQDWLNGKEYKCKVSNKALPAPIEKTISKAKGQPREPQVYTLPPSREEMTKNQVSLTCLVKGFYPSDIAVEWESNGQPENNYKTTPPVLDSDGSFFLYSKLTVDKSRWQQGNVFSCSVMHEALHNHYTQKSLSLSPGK

| Binder | Binding (200 nM) Fold-Over-Parental [1] [fold] | EC50 [2] [nM] | normalized maximum binding nm shift (Human VSIG4-L-Fc [3]) [normalized] | normalized maximum binding nm shift (Human VSIG4-L-Fc [4]) [normalized] | normalized maximum binding nm shift (Human VSIG4-L-Fc [5]) [normalized] | normalized maximum binding nm shift (Human VSIG4-L-Fc [6]) [normalized] | normalized maximum binding nm shift (Human VSIG4-L-Fc [8]) [normalized] | KD relative to parental chimera (Human VSIG4-L-His [9]) [fold] | KD relative to parental chimera [10] [fold] | normalized maximum binding nm shift (Human VSIG4-L-Fc [11]) [normalized] | normalized maximum binding nm shift (Human VSIG4-L-Fc [12]) [normalized] | normalized maximum binding nm shift (Human VSIG4-L-Fc [13]) [normalized] | Binding (200 nM) MFI [15] [MFI] | normalized maximum binding nm shift (Human VSIG4-L-Fc [16]) [normalized] | Percent Blocking C3b (Human VSIG4-L-Fc [17]) [%] | Kd [18] [nM] | IC50 (Human VSIG4-L-Fc [20]) [nM] | Kd (Human VSIG4-L-His [21]) [nM] | Kd [22] [nM] | normalized maximum binding nm shift (Human VSIG4-L-Fc [23]) [normalized] | also measured |
| --- | --- | --- | --- | --- | --- | --- | --- | --- | --- | --- | --- | --- | --- | --- | --- | --- | --- | --- | --- | --- | --- |
| B1 | 140 | 1.2 | 0.86 | 0.69 | 0.09 | 0.68 | 0.72 | 1 | 1 | 0.95 | 0.74 | 0.74 | 54300 | 0.7 | 75 | 20.1 | ~7 | 50.6 | 20.3 | 0.51 | binding result (Human VSIG4-S-His [7]): no binding (tested: 100 nM); Percent Blocking iC3b (Human VSIG4-L-Fc [14]): 78%; IC50 (Human VSIG4-L-Fc [19]): 440 nM; ELISA OD450 (Human VSIG4-S-Fc): 0.44 OD450; ELISA OD450 (Mouse VSIG4-His): 0.048 OD450; ELISA OD450 [24]: 4.37 OD450; ELISA OD450 (Human VSIG4-L-Fc [25]): 4.27 OD450 |
| B2 | 304 | 4.4 | 0.38 | 0.07 | 0.66 | 0.76 | 0.62 | 1 | 1 | 0.87 | 0.83 | 0.11 | 109000 | 0.75 | 96 | 5.4 | 2.4 | 3.46 | 30 | 0.68 | binding signal (nm shift) (Human VSIG4-L-Fc [26]): 0.83 nm; Kd (Human VSIG4-L-His [27]): 1.7 nM; binding signal (nm shift) (Human VSIG4-L-Fc [28]): 0.11 nm; binding signal (nm shift) (Human VSIG4-L-Fc [29]): 0.16 nm; Kd (Human VSIG4-S-His [30]): 2.69 nM; ELISA OD450 (Human VSIG4-S-Fc): 4.36 OD450; ELISA OD450 (Mouse VSIG4-His): 0.055 OD450; ELISA OD450 [24]: 4.52 OD450; ELISA OD450 (Human VSIG4-L-Fc [25]): 4.51 OD450 |
